In publication PMC12172627:
Where two headings read alike, the source gives them in different places.

Legend:
Experiment in all cases: EMSA
E2F1 DBD L132E = E2F1 DBD L132E (UniProt Q01094 110-194, L132E)
E2F1 DBD R166H = E2F1 DBD R166H (UniProt Q01094 110-194, R166H)
E2F1 full-length [1] = target: T1, E2F1 full-length (human, UniProt Q01094 1-437)
E2F1 full-length [2] = target: T1, E2F1 full-length; remark: listed apart in the source
E2F1 full-length [3] = target: T1, E2F1 full-length; remark: listed apart in the source

T1 sequence (Q01094 whole entry): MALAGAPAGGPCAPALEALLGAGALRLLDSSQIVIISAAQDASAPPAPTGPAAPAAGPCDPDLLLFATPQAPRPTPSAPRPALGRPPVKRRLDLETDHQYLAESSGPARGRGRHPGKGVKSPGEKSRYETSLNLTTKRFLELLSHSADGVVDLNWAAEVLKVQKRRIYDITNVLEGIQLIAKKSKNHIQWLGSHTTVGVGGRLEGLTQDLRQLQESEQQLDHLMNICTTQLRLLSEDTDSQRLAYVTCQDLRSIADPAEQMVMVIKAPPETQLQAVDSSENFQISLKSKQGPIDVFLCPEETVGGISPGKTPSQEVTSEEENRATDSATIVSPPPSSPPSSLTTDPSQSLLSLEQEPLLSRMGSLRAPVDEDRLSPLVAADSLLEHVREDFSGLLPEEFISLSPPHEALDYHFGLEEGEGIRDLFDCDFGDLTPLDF
Chain of E2F1 DBD L132E (Q01094 110-194 L132E): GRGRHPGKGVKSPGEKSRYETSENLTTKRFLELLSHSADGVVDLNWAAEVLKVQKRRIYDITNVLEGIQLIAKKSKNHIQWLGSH
Chain of E2F1 DBD R166H (Q01094 110-194 R166H): as the sequence (Q01094 110-194 L132E) above, with E23L, R57H counted along it

B1: 42-mer dsDNA (2XE2F1_DNA_BS) (dsDNA)
DNA 1: GCCGTTTTCGCGCTTAAATTTGAGAAAGGGCGCGAAACTGGA
DNA 2: TCCAGTTTCGCGCCCTTTCTCAAATTTAAGCGCGAAAACGGC
E2F1 DBD L132E
  binding result: binds
E2F1 DBD R166H
  binding result: binds
E2F1 full-length [1]
  binding result: binds

## AUCGAUUUCCAGCUCGAUCGAUCGAGCUGGAAAUCGAU (structured_RNA) [BS1 double stranded (stem)]
E2F1 full-length [2]
  binding result: binds

## AUCGAUUCCCCGCUCGAUCGAUCGAGCGGGGAAUCGAU (structured_RNA) [BS3 double stranded (stem)]
E2F1 full-length [3]
  binding result: binds

## AUCGAUUUCCCGCUCGAUCGAUCGAGCGGGAAAUCGAU (structured_RNA) [BS2 double stranded (stem)]
E2F1 full-length [2]
  binding result: binds

## AUCGAUUUCCCUCUCGAUCGAUCGAGAGGGAAAUCGAU (structured_RNA) [BS4 double stranded (stem)]
E2F1 full-length [2]
  binding result: binds
